The experiment concerns the target T1, decoration protein pb10 of bacteriophage T5, full length (bacteriophage T5, UniProt Q6QGD6 1-164).
T1 construct: Cloned in pET28b; also called native pb10; unmodified pb10; source: E. coli BL21 (DE3), purified (HisTrap FF, HiTrap SP, Superdex 75)
T1 sequence (looked up): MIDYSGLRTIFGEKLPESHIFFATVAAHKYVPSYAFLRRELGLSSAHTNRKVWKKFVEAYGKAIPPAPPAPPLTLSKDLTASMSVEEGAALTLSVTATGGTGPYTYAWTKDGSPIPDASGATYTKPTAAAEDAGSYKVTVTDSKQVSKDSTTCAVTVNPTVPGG
The experiment can be described thus: SPR; T5 CLPs captured on a CM5 chip through covalently coupled rabbit polyclonal anti-capsid antibodies (about 900 RU); pb10 or chimeras injected at 0.25-4 nM for 200 s at 50 µL/min; 25 °C; PBS with 0.05% Tween 20 and 1 mg/mL BSA; simple Langmuir model. As to conditions: both partners purified. (In general: In SPR one partner is held on a chip, and binding of the other changes the refractive index at the surface.)

This passage reports Kd results from article PMC10766600, “Antigen self-anchoring onto bacteriophage T5 capsid-like particles for vaccine design” (NPJ Vaccines, 2024).

B1: bacteriophage T5 capsid-like particles (T5 CLPs) (complex)
chain: AVNQSSSVEVSSESYETIFSQRIIRDLQKELVVGALFEELPMSSKILTMLVEPDAGKATWVAASTYGTDTTTGEEVKGALKEIHFSTYKLAAKSFITDETEEDAIFSLLPLLRKRLIEAHAVSIEEAFMTGDGSGKPKGLLTLASEDSAKVVTEAKADGSVLVTAKTISKLRRKLGRHGLKLSKLVLIVSMDAYYDLLEDEEWQDVAQVGNDSVKLQGQVGRIYGLPVVVSEYFPAKANSAEFAVIVYKDNFVMPRQRAVTVERERQAGKQRDAYYVTQRVNLQRYFANGVVSGTYAAS
modifications: DNA-free expanded capsid lacking pb10 (T5 dec deletion, stAmN5). Mature pb8 after removal of the scaffolding domain; limits from the UniProt chain feature, matching the 299 aa entity of PDB 6OMC/6OMA.
In turn, B1 came in with a Kd of 1.5 to 2.3 pM.

Broadly, the Kd is the free concentration of one partner at which half of the binding sites on the other are occupied at equilibrium, for simple one-to-one binding. Higher therefore signals lower affinity.
